Test results reported in patent US9081017.

Target: TNFR2 (human, endogenous in kidney tissue and cultured EC) (human) (UniProt P20333)
Test: cell-based or functional assay

Chain of TNFR2 (human, endogenous in kidney tissue and cultured EC) (human) (P20333 23-461): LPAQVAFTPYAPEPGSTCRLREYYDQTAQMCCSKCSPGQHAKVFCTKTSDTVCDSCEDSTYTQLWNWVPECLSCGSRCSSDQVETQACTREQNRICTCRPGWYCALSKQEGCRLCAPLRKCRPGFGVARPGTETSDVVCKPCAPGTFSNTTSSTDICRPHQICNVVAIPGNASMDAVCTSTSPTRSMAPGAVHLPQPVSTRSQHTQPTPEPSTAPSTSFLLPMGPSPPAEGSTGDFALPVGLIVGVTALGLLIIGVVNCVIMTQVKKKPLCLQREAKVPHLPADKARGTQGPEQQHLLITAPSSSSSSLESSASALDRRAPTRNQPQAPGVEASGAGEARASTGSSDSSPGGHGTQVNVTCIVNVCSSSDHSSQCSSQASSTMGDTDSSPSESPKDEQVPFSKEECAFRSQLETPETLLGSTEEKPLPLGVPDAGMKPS

## R2-TNF (TNF mutein D143N, A145R) (from UniProt P01375 77-233) (ligand)
  Proliferative index (PI), percentage of PCNA-positive tubular cell nuclei, human kidney organ culture: 50%
